Assay results published in patent US20170342151A1.

What was measured:
[1] = target: CD3 on T cells (UniProt P07766); test: FACS on T cells, 1 ug antibody, PE goat anti-human secondary; panel labelled CONTROL
[2] = target: CD3 on T cells (UniProt P07766); test: FACS on T cells, 0.1 ug antibody, PE goat anti-human secondary; panel labelled CONTROL
[3] = target: CD3 antigen (surface plasmon resonance); test: SPR, Biacore, two state reaction model
[4] = target: CD3 on T cells (UniProt P07766); test: FACS on T cells, 0.01 ug antibody, PE goat anti-human secondary; panel labelled CONTROL
[5] = target: human chondroitin sulfate proteoglycan 4 (CSPG4) on cells (human) (UniProt Q6UVK1); test: FACS on M14 cells, negative control antibody, amount not given, PE goat anti-human secondary; the same row stands in all three tables of the figure
Chain of human chondroitin sulfate proteoglycan 4 (CSPG4) on cells (human) (Q6UVK1 30-2322 limits assumed): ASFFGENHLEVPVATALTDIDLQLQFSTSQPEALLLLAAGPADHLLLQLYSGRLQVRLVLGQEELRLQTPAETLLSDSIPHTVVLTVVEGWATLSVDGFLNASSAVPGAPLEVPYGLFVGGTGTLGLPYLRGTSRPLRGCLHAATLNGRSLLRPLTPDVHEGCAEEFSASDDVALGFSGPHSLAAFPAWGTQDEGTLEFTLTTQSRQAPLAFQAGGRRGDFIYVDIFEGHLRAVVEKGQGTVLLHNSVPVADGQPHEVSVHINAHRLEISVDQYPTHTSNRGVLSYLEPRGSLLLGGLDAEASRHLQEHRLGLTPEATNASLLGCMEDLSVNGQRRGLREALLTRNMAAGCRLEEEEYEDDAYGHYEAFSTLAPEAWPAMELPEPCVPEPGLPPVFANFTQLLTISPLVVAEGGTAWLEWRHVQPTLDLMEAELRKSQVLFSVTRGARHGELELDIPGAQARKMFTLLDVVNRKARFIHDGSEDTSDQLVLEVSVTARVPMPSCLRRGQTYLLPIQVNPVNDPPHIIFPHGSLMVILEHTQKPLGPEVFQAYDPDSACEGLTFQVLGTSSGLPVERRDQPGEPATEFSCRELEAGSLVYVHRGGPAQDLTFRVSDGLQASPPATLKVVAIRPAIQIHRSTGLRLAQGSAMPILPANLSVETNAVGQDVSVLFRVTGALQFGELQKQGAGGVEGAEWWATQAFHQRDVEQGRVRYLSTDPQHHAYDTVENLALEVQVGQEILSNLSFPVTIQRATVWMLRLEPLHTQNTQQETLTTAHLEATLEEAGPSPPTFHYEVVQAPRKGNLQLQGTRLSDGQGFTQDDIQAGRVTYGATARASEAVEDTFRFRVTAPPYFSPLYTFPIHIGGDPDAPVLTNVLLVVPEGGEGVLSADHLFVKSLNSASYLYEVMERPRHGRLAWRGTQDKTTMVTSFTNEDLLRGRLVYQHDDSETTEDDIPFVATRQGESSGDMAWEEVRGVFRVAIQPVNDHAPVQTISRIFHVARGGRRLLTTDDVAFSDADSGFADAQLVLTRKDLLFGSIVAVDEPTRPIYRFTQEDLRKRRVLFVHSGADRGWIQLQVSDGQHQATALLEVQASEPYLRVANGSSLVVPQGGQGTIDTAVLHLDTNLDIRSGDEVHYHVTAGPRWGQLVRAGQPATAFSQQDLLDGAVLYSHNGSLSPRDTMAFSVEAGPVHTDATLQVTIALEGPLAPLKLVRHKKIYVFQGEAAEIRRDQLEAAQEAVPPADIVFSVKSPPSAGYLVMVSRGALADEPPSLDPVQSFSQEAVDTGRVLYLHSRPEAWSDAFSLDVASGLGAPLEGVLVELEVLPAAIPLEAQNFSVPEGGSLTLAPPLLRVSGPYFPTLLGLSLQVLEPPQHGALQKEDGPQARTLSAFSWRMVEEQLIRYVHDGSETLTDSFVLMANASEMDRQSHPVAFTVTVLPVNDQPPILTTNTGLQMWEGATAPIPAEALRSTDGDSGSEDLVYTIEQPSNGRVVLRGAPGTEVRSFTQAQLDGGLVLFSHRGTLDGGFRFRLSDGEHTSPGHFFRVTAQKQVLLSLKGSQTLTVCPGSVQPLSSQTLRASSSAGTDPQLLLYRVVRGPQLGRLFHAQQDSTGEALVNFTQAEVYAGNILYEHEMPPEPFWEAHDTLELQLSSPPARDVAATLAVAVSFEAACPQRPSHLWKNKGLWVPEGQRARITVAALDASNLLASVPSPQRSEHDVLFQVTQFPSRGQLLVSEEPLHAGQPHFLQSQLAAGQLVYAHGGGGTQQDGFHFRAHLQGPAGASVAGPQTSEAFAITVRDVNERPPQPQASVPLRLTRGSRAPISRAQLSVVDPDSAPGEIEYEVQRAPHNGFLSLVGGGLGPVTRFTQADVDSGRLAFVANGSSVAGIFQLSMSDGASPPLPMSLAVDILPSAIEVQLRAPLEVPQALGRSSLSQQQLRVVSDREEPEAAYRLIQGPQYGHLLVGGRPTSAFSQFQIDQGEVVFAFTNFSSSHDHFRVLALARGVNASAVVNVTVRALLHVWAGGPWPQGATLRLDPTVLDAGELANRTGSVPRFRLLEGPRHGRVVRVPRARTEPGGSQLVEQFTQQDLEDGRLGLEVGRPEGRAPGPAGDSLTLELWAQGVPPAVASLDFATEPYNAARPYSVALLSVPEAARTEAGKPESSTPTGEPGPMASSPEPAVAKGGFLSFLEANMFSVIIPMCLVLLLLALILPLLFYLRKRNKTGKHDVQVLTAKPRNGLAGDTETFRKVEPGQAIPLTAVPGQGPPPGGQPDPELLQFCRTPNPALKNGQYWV

[6] = target: CD3 on T cells (UniProt P07766); test: FACS on T cells, negative control antibody, amount not given, PE goat anti-human secondary; the same row stands in all three tables of the figure

Chain of CD3 on T cells (P07766 23-207, chain 1 of 3): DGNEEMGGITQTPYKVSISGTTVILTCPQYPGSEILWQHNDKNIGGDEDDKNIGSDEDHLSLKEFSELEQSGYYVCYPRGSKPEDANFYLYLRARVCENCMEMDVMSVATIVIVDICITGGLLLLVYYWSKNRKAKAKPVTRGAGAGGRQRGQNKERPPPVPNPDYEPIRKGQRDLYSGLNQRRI
Chain of CD3 on T cells (P09693 23-182, chain 2 of 3, further chain): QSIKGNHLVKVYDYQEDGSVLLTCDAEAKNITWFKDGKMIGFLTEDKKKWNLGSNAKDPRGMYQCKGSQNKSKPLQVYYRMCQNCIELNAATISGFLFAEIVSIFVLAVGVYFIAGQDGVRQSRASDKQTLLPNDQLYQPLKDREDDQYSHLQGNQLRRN
Chain of CD3 on T cells (P04234 22-171, chain 3 of 3, further chain): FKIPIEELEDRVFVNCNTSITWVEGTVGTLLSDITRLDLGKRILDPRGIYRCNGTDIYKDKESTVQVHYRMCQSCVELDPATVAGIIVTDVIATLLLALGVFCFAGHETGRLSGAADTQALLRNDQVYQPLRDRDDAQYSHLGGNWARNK

Row | GEOMETRIC MEAN : FL2-H [1] | GEOMETRIC MEAN : FL2-H [2] | Kd [3] [µM] | koff [3] [s⁻¹] | kon [3] [M⁻¹ s⁻¹] | GEOMETRIC MEAN : FL2-H [4] | GEOMETRIC MEAN : FL2-H [5] | GEOMETRIC MEAN : FL2-H [6] | Substance
1 | 2010 | 645 | 0.0617 | 0.105 | 1.71e+06 | 66.1 |  |  | humanized OKT3 IgG1-aGlyco (antibody)
2 |  |  |  |  |  |  | 5.15 | 5.1 | control human IgG1 antibody (non-specific for CSPG4 or T cells)
